Reference: the supplement of paper PMC5998384

Assays:
[1] = tested on: HeLa Kyoto; assay: solubility change mitosis vs G1/S (difference of NP-40 vs SDS log2 ratios) (log2 ratio difference); higher = more soluble in mitosis
[2] = tested on: HeLa Kyoto; assay: solubility in G1/S (NP-40 vs SDS abundance) (log2 ratio); higher = more soluble; details: cell cycle stage: G1/S
[3] = tested on: HeLa Kyoto; assay: melting temperature (median over replicates), in situ; higher = more thermally stable
[4] = tested on: HeLa Kyoto; assay: thermal stability score vs G1/S (z-score of summed log2 fold changes over temperatures); higher = more thermally stable than in G1/S
[5] = cell cycle stage: early G1 (4.5 h after nocodazole release)
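For melting temperature (median over replicates), in situ in this document: HeLa Kyoto cells synchronized by double thymidine or nocodazole block, proteins quantified by TMT10plex mass spectrometry, three independent biological replicates.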
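For solubility change mitosis vs G1/S (difference of NP-40 vs SDS log2 ratios) in this document: synchronized HeLa Kyoto cells (double thymidine block for G1/S, nocodazole release for mitosis), protein amounts in NP-40 versus SDS lysates quantified by mass spectrometry, three biological replicates.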
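For solubility in G1/S (NP-40 vs SDS abundance) in this document: HeLa Kyoto cells arrested at G1/S by double thymidine block, proteins quantified by TMT10plex mass spectrometry in mild NP-40 versus SDS extracts, three biological replicates.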
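For thermal stability score vs G1/S (z-score of summed log2 fold changes over temperatures) in this document: synchronized HeLa Kyoto cells, proteins quantified by TMT10plex mass spectrometry, three biological replicates, mitosis taken 0.5 h after nocodazole release, G1/S directly after double thymidine block.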

Row | Substance | solubility change mitosis (log2) [1] | solubility in G1/S (log2) [2] | melting temperature ([3]; cell cycle stage: G1/S) | melting temperature ([3]; cell cycle stage: mitosis) | thermal stability score [4, 5] | thermal stability score ([4]; cell cycle stage: mitosis)
1 | MWRGLWTLAAQAARGPRRLCTRRSSGAPAPGSGATIFALSSGQGRCGIAVIRTSGPASGHALRILTAPRDLPLARHASLRLLSDPRSGEPLDRALVLWFPGPQSFTGEDCVEFHVHGGPAVVSGVLQALGSVPGLRPAEAGEFTRRAFANGKLNLTEVEGLADLIHAETEAQRRQALRQLDGELGHLCRGWAETLTKALAHVEAYIDFGEDDNLEEGVLEQADIEVRALQVALGAHLRDARRGQRLRSGVHVVVTGPPNAGKSSLVNLLSRKPVSIVSPEPGTTRDVLETPVDLAGFPVLLSDTAGLREGVGPVEQEGVRRARERLEQADLILAMLDASDLASPSSCNFLATVVASVGAQSPSDSSQRLLLVLNKSDLLSPEGPGPGPDLPPHLLLSCLTGEGLDGLLEALRKELAAVCGDPSTDPPLLTRARHQHHLQGCLDALGHYKQSKDLALAAEALRVARGHLTRLTGGGGTEEILDIIFQDFCVGK [GTPBP3] | 0.0593 | 0.505 | 53.2 °C | 52.4 °C | -0.238 | -0.0908
2 | MADYSTVPPPSSGSAGGGGGGGGGGGVNDAFKDALQRARQIAAKIGGDAGTSLNSNDYGYGGQKRPLEDGDQPDAKKVAPQNDSFGTQLPPMHQQQSRSVMTEEYKVPDGMVGFIIGRGGEQISRIQQESGCKIQIAPDSGGLPERSCMLTGTPESVQSAKRLLDQIVEKGRPAPGFHHGDGPGNAVQEIMIPASKAGLVIGKGGETIKQLQERAGVKMVMIQDGPQNTGADKPLRITGDPYKVQQAKEMVLELIRDQGGFREVRNEYGSRIGGNEGIDVPIPRFAVGIVIGRNGEMIKKIQNDAGVRIQFKPDDGTTPERIAQITGPPDRCQHAAEIITDLLRSVQAGNPGGPGPGGRGRGRGQGNWNMGPPGGLQEFNFIVPTGKTGLIIGKGGETIKSISQQSGARIELQRNPPPNADPNMKLFTIRGTPQQIDYARQLIEEKIGGPVNPLGPPVPHGPHGVPGPHGPPGPPGPGTPMGPYNPAPYNPGPPGPAPHGPPAPYAPQGWGNAYPHWQQQAPPDPAKAGTDPNSAAWAAYYAHYYQQQAQPPPAAPAGAPTTTQTNGQGDQQNPAPAGQVDYTKAWEEYYKKMGQAVPAPTGAPPGGQPDYSAAWAEYYRQQAAYYAQTSPQGMPQHPPAPQGQ [FUBP1] | 0.0996 | 0.527 | 57 °C | 56.4 °C | -0.104 | -0.787
3 | MWKLLPAAGPAGGEPYRLLTGVEYVVGRKNCAILIENDQSISRNHAVLTANFSVTNLSQTDEIPVLTLKDNSKYGTFVNEEKMQNGFSRTLKSGDGITFGVFGSKFRIEYEPLVACSSCLDVSGKTALNQAILQLGGFTVNNWTEECTHLVMVSVKVTIKTICALICGRPIVKPEYFTEFLKAVESKKQPPQIESFYPPLDEPSIGSKNVDLSGRQERKQIFKGKTFIFLNAKQHKKLSSAVVFGGGEARLITEENEEEHNFFLAPGTCVVDTGITNSQTLIPDCQKKWIQSIMDMLQRQGLRPIPEAEIGLAVIFMTTKNYCDPQGHPSTGLKTTTPGPSLSQGVSVDEKLMPSAPVNTTTYVADTESEQADTWDLSERPKEIKVSKMEQKFRMLSQDAPTVKESCKTSSNNNSMVSNTLAKMRIPNYQLSPTKLPSINKSKDRASQQQQTNSIRNYFQPSTKKRERDEENQEMSSCKSARIETSCSLLEQTQPATPSLWKNKEQHLSENEPVDTNSDNNLFTDTDLKSIVKNSASKSHAAEKLRSNKKREMDDVAIEDEVLEQLFKDTKPELEIDVKVQKQEEDVNVRKRPRMDIETNDTFSDEAVPESSKISQENEIGKKRELKEDSLWSAKEISNNDKLQDDSEMLPKKLLLTEFRSLVIKNSTSRNPSGINDDYGQLKNFKKFKKVTYPGAGKLPHIIGGSDLIAHHARKNTELEEWLRQEMEVQNQHAKEESLADDLFRYNPYLKRRR [NBN] | -0.152 | -0.0211 | 48.7 °C | 49.7 °C | 0.727 | 1.8
4 | ZNF24 | 0.265 | -0.217 | – | 52.2 °C | 1.15 | 1.78
5 | KIDINS220 | 0.00102 | -0.21 | 52.9 °C | 52 °C | -0.795 | -1.61
6 | MEATGVLPFVRGVDLSGNDFKGGYFPENVKAMTSLRWLKLNRTGLCYLPEELAALQKLEHLSVSHNNLTTLHGELSSLPSLRAIVARANSLKNSGVPDDIFKLDDLSVLDLSHNQLTECPRELENAKNMLVLNLSHNSIDTIPNQLFINLTDLLYLDLSENRLESLPPQMRRLVHLQTLVLNGNPLLHAQLRQLPAMTALQTLHLRSTQRTQSNLPTSLEGLSNLADVDLSCNDLTRVPECLYTLPSLRRLNLSSNQITELSLCIDQWVHVETLNLSRNQLTSLPSAICKLSKLKKLYLNSNKLDFDGLPSGIGKLTNLEEFMAANNNLELVPESLCRCPKLRKLVLNKNHLVTLPEAIHFLTEIEVLDVRENPNLVMPPKPADRAAEWYNIDFSLQNQLRLAGASPATVAAAAAAGSGPKDPMARKMRLRRRKDSAQDDQAKQVLKGMSDVAQEKNKKQEESADARAPSGKVRRWDQGLEKPRLDYSEFFTEDVGQLPGLTIWQIENFVPVLVEEAFHGKFYEADCYIVLKTFLDDSGSLNWEIYYWIGGEATLDKKACSAIHAVNLRNYLGAECRTVREEMGDESEEFLQVFDNDISYIEGGTASGFYTVEDTHYVTRMYRVYGKKNIKLEPVPLKGTSLDPRFVFLLDRGLDIYVWRGAQATLSSTTKARLFAEKINKNERKGKAEITLLVQGQELPEFWEALGGEPSEIKKHVPEDFWPPQPKLYKVGLGLGYLELPQINYKLSVEHKQRPKVELMPRMRLLQSLLDTRCVYILDCWSDVFIWLGRKSPRLVRAAALKLGQELCGMLHRPRHATVSRSLEGTEAQVFKAKFKNWDDVLTVDYTRNAEAVLQSPGLSGKVKRDAEKKDQMKADLTALFLPRQPPMSLAEAEQLMEEWNEDLDGMEGFVLEGKKFARLPEEEFGHFYTQDCYVFLCRYWVPVEYEEEEKKEDKEEKAEGKEGEEATAEAEEKQPEEDFQCIVYFWQGREASNMGWLTFTFSLQKKFESLFPGKLEVVRMTQQQENPKFLSHFKRKFIIHRGKRKAVQGAQQPSLYQIRTNGSALCTRCIQINTDSSLLNSEFCFILKVPFESEDNQGIVYAWVGRASDPDEAKLAEDILNTMFDTSYSKQVINEGEEPENFFWVGIGAQKPYDDDAEYMKHTRLFRCSNEKGYFAVTEKCSDFCQDDLADDDIMLLDNGQEVYMWVGTQTSQVEIKLSLKACQVYIQHMRSKEHERPRRLRLVRKGNEQHAFTRCFHAWSAFCKALA [FLII] | -0.0947 | -0.172 | 49.5 °C | 49.5 °C | -0.0623 | 0.353
7 | MAASVAAAARRLRRAIRRSPAWRGLSHRPLSSEPPAAKASAVRAAFLNFFRDRHGHRLVPSASVRPRGDPSLLFVNAGMNQFKPIFLGTVDPRSEMAGFRRVANSQKCVRAGGHHNDLEDVGRDLSHHTFFEMLGNWAFGGEYFKEEACNMAWELLTQVYGIPEERLWISYFDGDPKAGLDPDLETRDIWLSLGVPASRVLSFGPQENFWEMGDTGPCGPCTEIHYDLAGGVGAPQLVELWNLVFMQHNREADGSLQPLPQRHVDTGMGLERLVAVLQGKHSTYDTDLFSPLLNAIQQGCRAPPYLGRVGVADEGRTDTAYRVVADHIRTLSVCISDGIFPGMSGPPLVLRRILRRAVRFSMEILKAPPGFLGSLVPVVVETLGDAYPELQRNSAQIANLVSEDEAAFLASLERGRRIIDRTLRTLGPSDMFPAEVAWSLSLCGDLGLPLDMVELMLEEKGVQLDSAGLERLAQEEAQHRARQAEPVQKQGLWLDVHALGELQRQGVPPTDDSPKYNYSLRPSGSYEFGTCEAQVLQLYTEDGTAVASVGKGQRCGLLLDRTNFYAEQGGQASDRGYLVRAGQEDVLFPVARAQVCGGFILHEAVAPECLRLGDQVQLHVDEAWRLGCMAKHTATHLLNWALRQTLGPGTEQQGSHLNPEQLRLDVTTQTPLTPEQLRAVENTVQEAVGQDEAVYMEEVPLALTAQVPGLRSLDEVYPDPVRVVSVGVPVAHALDPASQAALQTSVELCCGTHLLRTGAVGDLVIIGDRQLSKGTTRLLAVTGEQAQQARELGQSLAQEVKAATERLSLGSRDVAEALRLSKDIGRLIEAVETAVMPQWQRRELLATVKMLQRRANTAIRKLQMGQAAKKTQELLERHSKGPLIVDTVSAESLSVLVKVVRQLCEQAPSTSVLLLSPQPMGKVLCACQVAQGAMPTFTAEAWALAVCSHMGGKAWGSRVVAQGTGSTTDLEAALSIAQTYALSQL [AARS2] | -0.0878 | -0.0312 | 49.9 °C | 50 °C | -0.609 | 0.833
8 | MVKLFIGNLPREATEQEIRSLFEQYGKVLECDIIKNYGFVHIEDKTAAEDAIRNLHHYKLHGVNINVEASKNKSKTSTKLHVGNISPTCTNKELRAKFEEYGPVIECDIVKDYAFVHMERAEDAVEAIRGLDNTEFQGKRMHVQLSTSRLRTAPGMGDQSGCYRCGKEGHWSKECPIDRSGRVADLTEQYNEQYGAVRTPYTMSYGDSLYYNNAYGALDAYYKRCRAARSYEAVAAAAASVYNYAEQTLSQLPQVQNTAMASHLTSTSLDPYDRHLLPTSGAAATAAAAAAAAAAVTAASTSYYGRDRSPLRRATAPVPTVGEGYGYGHESELSQASAAARNSLYDMARYEREQYADRARYSAF [RBM4] | -0.0121 | 0.281 | 49.6 °C | 48 °C | -0.245 | -0.114
9 | MVGEEKMSLRNRLSKSRENPEEDEDQRNPAKESLETPSNGRIDIKQLIAKKIKLTAEAEELKPFFMKEVGSHFDDFVTNLIEKSASLDNGGCALTTFSVLEGEKNNHRAKDLRAPPEQGKIFIARRSLLDELLEVDHIRTIYHMFIALLILFILSTLVVDYIDEGRLVLEFSLLSYAFGKFPTVVWTWWIMFLSTFSVPYFLFQHWATGYSKSSHPLIRSLFHGFLFMIFQIGVLGFGPTYVVLAYTLPPASRFIIIFEQIRFVMKAHSFVRENVPRVLNSAKEKSSTVPIPTVNQYLYFLFAPTLIYRDSYPRNPTVRWGYVAMKFAQVFGCFFYVYYIFERLCAPLFRNIKQEPFSARVLVLCVFNSILPGVLILFLTFFAFLHCWLNAFAEMLRFGDRMFYKDWWNSTSYSNYYRTWNVVVHDWLYYYAYKDFLWFFSKRFKSAAMLAVFAVSAVVHEYALAVCLSFFYPVLFVLFMFFGMAFNFIVNDSRKKPIWNVLMWTSLFLGNGVLLCFYSQEWYARQHCPLKNPTFLDYVRPRSWTCRYVF [SOAT1] | -0.0778 | -0.292 | 52.2 °C | 52 °C | 0.192 | 0.0734
10 | MADHSFSDGVPSDSVEAAKNASNTEKLTDQVMQNPRVLAALQERLDNVPHTPSSYIETLPKAVKRRINALKQLQVRCAHIEAKFYEEVHDLERKYAALYQPLFDKRREFITGDVEPTDAESEWHSENEEEEKLAGDMKSKVVVTEKAAATAEEPDPKGIPEFWFTIFRNVDMLSELVQEYDEPILKHLQDIKVKFSDPGQPMSFVLEFHFEPNDYFTNSVLTKTYKMKSEPDKADPFSFEGPEIVDCDGCTIDWKKGKNVTVKTIKKKQKHKGRGTVRTITKQVPNESFFNFFNPLKASGDGESLDEDSEFTLASDFEIGHFFRERIVPRAVLYFTGEAIEDDDNFEEGEEGEEEELEGDEEGEDEDDAEINPKV [NAP1L4] | -0.0294 | 0.455 | 51.4 °C | 51.7 °C | 1.4 | 0.831
